According to US9176064B2, “Bisubstrate fluorescent probes for protein kinase CK2” (University of Tartu, priority 2012, dated 2015):
Where a SMILES comes first, the peptide text is derived from it. [ ]: non-standard residue; d: D form. The star is where a group is joined. X1 = O=C(CCCCCCCn1cnc2c(Br)c(Br)c(Br)c(Br)c21)*

How the values were obtained:
Assay in all cases: Kinase panel residual activity
Format in all cases: biochemical
Settings in all cases: compound at 1 micromolar
IRR = IRR (Homo sapiens, UniProt P14616)
SRPK1 = SRPK1 (Homo sapiens, UniProt Q96SB4)
MARK2 = MARK2 (Homo sapiens, UniProt Q7KZI7)
EIF2AK3 = target: T1, EIF2AK3 (Homo sapiens, UniProt Q9NZJ5)
T1 sequence (Q9NZJ5 30-1116): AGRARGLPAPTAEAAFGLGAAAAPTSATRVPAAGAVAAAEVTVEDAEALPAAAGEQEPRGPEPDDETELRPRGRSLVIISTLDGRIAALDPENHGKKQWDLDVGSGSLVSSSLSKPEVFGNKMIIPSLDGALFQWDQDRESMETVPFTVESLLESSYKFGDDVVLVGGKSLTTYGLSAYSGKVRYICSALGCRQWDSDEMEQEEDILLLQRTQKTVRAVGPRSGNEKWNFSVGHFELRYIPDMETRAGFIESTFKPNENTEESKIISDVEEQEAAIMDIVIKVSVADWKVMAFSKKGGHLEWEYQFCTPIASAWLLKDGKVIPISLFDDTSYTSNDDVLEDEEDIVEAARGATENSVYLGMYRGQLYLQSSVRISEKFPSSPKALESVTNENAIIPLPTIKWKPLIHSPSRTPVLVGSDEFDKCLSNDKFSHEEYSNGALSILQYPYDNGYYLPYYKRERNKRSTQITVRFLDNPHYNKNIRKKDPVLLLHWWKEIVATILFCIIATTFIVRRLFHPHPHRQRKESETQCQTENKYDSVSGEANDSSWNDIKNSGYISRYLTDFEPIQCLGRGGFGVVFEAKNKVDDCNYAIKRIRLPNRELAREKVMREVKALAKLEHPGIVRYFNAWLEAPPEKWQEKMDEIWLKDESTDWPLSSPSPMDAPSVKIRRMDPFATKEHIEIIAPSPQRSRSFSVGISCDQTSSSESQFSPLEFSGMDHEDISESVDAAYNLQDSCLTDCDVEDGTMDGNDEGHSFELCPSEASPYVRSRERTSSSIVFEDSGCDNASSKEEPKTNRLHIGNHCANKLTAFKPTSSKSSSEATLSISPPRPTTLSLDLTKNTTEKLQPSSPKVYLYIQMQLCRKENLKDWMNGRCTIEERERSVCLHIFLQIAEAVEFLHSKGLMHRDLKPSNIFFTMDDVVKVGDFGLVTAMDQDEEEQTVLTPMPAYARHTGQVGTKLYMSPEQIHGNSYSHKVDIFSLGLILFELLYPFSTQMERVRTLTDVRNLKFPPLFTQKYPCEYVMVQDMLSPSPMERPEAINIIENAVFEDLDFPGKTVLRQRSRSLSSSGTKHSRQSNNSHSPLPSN

DAPK1 = DAPK1 (Homo sapiens, UniProt P53355)
TSSK1 = target: T2, TSSK1 (Homo sapiens, UniProt Q9BXA7)
T2 sequence (Q9BXA7 1-367): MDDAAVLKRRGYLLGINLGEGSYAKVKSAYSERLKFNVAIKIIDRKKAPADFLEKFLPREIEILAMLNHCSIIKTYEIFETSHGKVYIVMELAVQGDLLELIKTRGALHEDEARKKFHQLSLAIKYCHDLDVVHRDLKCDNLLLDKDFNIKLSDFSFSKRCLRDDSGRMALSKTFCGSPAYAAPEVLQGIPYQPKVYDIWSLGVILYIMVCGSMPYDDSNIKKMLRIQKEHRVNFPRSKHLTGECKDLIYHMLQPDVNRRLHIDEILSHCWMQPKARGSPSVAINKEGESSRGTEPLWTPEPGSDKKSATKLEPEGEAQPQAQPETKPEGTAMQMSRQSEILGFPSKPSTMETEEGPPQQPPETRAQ

MPSK1 = MPSK1 (Homo sapiens, UniProt O75716)
EPH-B1 = target: T3, EPH-B1 (Homo sapiens, UniProt P54762)
T3 sequence (P54762 18-984): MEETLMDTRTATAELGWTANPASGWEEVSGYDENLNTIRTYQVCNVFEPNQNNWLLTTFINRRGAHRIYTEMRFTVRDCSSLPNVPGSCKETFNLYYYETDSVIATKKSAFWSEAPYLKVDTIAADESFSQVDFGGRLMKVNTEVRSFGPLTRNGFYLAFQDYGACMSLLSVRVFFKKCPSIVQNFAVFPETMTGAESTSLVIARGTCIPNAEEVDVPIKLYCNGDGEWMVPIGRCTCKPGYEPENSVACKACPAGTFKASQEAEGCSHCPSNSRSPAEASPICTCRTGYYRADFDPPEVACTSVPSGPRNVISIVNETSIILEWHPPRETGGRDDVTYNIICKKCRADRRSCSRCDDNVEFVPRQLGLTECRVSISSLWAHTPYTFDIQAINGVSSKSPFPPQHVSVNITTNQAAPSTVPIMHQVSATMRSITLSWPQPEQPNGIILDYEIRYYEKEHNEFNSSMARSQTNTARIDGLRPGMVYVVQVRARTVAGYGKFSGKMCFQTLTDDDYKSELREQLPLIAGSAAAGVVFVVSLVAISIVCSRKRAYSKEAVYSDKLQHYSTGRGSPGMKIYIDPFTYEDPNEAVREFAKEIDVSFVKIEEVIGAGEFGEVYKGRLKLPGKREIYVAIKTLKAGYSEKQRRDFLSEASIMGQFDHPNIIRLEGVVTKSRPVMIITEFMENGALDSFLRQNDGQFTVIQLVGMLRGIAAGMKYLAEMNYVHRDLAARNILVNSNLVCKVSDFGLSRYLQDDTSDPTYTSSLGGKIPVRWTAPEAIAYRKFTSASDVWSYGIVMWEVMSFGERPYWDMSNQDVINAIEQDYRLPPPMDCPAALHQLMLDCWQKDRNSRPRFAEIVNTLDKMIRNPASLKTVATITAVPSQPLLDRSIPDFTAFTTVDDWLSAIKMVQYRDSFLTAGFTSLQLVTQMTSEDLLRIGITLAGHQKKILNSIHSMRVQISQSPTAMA

JNK2 = JNK2 (Homo sapiens, UniProt P45984)
ERK1 = ERK1 (Homo sapiens, UniProt P27361)
IGF-1R = IGF-1R (Homo sapiens, UniProt P08069)
NEK6 = NEK6 (Homo sapiens, UniProt Q9HC98)

Chain of ERK1 (P27361 whole entry, species assumed): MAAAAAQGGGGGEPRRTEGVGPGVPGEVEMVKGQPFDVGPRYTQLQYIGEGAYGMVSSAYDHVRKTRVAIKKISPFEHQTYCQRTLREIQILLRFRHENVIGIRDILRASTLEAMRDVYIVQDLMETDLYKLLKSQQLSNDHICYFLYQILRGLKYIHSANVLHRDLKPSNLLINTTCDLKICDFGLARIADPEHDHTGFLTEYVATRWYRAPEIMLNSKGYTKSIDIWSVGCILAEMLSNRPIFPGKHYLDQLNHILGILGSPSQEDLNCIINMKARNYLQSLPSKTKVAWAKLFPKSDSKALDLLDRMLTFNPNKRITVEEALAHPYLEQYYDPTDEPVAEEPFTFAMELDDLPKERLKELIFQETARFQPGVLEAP
Chain of JNK2 (P45984 whole entry, species assumed): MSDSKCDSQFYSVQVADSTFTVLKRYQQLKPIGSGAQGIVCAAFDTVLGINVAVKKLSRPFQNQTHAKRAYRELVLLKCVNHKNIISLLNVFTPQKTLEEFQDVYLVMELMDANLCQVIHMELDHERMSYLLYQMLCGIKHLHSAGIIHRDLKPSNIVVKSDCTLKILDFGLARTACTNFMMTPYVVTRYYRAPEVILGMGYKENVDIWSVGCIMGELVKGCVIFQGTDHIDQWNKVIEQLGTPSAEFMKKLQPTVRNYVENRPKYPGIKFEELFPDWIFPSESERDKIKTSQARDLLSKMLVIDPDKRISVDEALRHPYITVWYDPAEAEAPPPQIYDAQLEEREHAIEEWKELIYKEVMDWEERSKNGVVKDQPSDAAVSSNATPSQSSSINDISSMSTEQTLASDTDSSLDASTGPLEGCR
Chain of DAPK1 (P53355 whole entry, species assumed): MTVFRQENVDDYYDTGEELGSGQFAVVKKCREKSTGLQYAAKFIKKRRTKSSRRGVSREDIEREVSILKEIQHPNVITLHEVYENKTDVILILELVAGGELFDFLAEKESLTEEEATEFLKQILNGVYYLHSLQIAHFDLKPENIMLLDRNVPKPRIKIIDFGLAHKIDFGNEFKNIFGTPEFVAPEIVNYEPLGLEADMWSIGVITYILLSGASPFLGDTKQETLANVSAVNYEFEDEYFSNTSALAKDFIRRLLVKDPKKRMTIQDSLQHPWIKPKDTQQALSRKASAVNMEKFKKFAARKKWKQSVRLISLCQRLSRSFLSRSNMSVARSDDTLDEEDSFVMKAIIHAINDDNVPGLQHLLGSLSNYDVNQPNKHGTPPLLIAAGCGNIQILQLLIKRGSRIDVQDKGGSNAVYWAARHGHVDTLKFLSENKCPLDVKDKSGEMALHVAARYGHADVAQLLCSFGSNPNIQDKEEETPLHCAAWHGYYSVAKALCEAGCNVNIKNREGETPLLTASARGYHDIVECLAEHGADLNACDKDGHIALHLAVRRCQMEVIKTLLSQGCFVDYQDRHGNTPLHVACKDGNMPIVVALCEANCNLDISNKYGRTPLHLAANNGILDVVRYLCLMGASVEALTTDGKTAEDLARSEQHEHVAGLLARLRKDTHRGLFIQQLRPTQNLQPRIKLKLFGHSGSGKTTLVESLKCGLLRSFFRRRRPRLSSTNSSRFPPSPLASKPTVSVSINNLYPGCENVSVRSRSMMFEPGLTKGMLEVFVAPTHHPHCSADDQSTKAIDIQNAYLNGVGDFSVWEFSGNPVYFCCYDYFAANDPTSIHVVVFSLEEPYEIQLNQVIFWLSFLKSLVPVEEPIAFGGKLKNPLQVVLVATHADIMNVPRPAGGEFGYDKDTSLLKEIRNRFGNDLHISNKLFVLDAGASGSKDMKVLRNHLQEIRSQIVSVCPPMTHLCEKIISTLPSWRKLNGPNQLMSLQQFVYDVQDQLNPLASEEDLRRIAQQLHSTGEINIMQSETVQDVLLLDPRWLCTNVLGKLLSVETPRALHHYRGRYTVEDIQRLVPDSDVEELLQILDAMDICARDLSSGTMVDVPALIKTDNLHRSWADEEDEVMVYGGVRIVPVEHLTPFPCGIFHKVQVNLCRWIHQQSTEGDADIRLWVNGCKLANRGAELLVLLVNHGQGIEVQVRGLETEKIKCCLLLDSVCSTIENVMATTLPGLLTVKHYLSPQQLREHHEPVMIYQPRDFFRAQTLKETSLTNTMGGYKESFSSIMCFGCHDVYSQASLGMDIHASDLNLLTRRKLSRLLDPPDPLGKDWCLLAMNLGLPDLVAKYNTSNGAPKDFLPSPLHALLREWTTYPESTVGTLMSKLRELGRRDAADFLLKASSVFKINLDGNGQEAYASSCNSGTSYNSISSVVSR
Chain of SRPK1 (Q96SB4 whole entry, species assumed): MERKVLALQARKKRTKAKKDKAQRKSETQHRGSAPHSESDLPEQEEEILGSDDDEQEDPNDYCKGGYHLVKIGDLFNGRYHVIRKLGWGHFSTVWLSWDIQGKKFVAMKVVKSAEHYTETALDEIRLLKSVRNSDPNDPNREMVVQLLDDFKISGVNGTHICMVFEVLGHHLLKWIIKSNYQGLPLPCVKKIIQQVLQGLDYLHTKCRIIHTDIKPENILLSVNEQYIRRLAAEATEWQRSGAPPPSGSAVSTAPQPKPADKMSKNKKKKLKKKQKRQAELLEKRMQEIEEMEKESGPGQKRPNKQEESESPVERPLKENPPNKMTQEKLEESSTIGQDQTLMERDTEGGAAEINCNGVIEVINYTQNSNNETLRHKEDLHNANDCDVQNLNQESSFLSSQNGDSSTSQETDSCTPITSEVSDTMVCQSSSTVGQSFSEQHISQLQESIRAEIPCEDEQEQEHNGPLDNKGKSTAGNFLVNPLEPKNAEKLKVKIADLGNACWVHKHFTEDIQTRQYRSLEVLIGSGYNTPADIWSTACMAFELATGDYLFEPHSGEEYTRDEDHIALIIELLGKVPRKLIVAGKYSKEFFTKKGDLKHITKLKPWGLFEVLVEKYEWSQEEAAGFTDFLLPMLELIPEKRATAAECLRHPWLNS
Chain of IRR (P14616 27-1297, species assumed): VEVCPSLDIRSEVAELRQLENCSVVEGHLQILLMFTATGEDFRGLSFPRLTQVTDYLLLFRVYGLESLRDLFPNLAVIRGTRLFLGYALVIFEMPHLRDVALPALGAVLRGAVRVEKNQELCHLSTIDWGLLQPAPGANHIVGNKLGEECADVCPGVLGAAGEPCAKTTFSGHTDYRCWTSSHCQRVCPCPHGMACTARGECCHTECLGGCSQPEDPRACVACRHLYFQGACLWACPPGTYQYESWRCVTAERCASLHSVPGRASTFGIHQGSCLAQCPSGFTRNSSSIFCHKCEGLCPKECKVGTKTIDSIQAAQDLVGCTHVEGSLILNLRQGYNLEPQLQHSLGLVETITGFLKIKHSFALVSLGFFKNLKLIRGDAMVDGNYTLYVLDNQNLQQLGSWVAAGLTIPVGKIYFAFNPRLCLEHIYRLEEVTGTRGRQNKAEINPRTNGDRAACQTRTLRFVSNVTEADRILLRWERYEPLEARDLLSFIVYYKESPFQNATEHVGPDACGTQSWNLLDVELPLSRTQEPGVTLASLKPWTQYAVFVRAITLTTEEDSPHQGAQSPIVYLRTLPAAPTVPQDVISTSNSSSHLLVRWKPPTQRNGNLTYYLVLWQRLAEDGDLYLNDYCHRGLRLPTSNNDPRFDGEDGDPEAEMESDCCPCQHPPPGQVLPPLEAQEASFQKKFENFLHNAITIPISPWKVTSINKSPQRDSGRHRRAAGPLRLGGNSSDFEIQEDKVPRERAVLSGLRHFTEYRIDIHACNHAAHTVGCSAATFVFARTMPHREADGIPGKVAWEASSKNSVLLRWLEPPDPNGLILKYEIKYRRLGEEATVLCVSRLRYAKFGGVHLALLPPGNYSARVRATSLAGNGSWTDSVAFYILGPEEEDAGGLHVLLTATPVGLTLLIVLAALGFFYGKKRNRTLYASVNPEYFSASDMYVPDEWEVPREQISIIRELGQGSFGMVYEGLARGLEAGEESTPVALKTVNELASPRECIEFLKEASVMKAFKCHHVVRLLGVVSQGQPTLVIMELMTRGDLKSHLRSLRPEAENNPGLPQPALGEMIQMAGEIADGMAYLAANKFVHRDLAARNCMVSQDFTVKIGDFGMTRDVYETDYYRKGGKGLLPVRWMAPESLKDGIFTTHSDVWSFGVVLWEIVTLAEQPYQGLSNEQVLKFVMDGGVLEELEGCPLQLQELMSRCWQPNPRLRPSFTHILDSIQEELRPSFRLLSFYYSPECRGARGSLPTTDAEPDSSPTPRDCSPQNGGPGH
Chain of MARK2 (Q7KZI7 whole entry, species assumed): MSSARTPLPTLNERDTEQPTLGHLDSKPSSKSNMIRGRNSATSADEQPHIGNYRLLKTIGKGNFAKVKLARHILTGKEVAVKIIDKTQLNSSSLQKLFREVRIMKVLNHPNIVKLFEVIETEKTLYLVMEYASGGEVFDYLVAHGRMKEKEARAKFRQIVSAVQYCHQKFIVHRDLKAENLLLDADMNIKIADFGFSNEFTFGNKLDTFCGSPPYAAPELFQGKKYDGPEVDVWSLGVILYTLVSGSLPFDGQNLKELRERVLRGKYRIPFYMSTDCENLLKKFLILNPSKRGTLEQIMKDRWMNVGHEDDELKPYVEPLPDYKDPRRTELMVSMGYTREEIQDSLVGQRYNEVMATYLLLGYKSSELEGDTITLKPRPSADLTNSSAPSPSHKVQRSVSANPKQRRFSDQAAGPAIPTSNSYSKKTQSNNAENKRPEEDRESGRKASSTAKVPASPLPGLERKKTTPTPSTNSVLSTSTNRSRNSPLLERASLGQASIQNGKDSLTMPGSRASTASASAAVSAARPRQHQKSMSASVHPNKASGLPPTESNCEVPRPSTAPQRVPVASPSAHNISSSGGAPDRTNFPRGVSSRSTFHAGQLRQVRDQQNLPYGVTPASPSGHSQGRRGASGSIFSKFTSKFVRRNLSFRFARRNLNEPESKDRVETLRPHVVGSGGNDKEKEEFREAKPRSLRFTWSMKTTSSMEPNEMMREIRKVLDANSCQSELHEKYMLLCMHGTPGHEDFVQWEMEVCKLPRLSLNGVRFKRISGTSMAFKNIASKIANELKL

In the case of `NCCCC[C@H](NC(=O)[C@H](CC(=O)O)NC(=O)[C@H](CC(=O)O)NC(=O)[C@H](CC(=O)O)NC(=O)[C@H](CC(=O)O)NC(=O)[C@H](CC(=O)O)NC(=O)[C@@H](CC(=O)O)NC(=O)CCCCCCCn1cnc2c(Br)c(Br)c(Br)c(Br)c21)C(=O)O` [TBBI-OcA-(D-Asp)-(L-Asp)5-(L-Lys)-OH] (X1-[dD]DDDDDK-OH), the remaining activity at 1 µM (IRR) is reported as 55%, the remaining activity at 1 µM (SRPK1) is reported as 61% and the remaining activity at 1 µM (MARK2) is reported as 66%. For the same compound, the remaining activity at 1 µM (EIF2AK3) was 71%, the remaining activity at 1 µM (DAPK1) was 84% and the remaining activity at 1 µM (TSSK1) was 86%. For the same compound, the remaining activity at 1 µM (MPSK1) was 96%, the remaining activity at 1 µM (EPH-B1) was 102% and the remaining activity at 1 µM (JNK2) was 105%. It also gave a remaining activity at 1 µM (ERK1) of 110%, a remaining activity at 1 µM (IGF-1R) of 116% and a remaining activity at 1 µM (NEK6) of 121%.
